From the DeepSol protein solubility set

Assay: soluble on expression in E. coli; label from the status in PepcDB or PDB records

Sequence	soluble on expression in E. coli
MATSSAASVDMEDIQTVDLMSELLRRMKCASKPDKRLVFIGPPGSGKGTQSPVIKDEFCLCHLSTGDMLRAAVAAKTPLGVKAKEAMDKGELVSDDLVVGIMDEAMNRPKCQKGFILDGFPRTVTQAEKLDEMLNRRGAQIDKVLNFAIDDSVLEERITGRWIHPSSGRSYHTKFAPPKVPGVDDLTGEPLIQRKDDNADVLRSRLDAFHKQTQPVIDYYAKKENLVNIPAEKAPEEVTKVVKKVVST	soluble
SENLPAVTTEEPTPMGRGPVGPSGGGSTRDQVRTVVMRPSVSWEKAGPEEAKAPVRGGATVPAESLERPGPSSCFSRDASVITKLAKNEAGAFEPPCSETVPETVRWVWPWNP	soluble
MGNNQSGGPDARYGGPNDKAGLRRHRMMSETAKIAGQVLPNPDGGPPMIFDDGNEDKSGECPVVFRWSFTQNAQPRVVHIVGSWDNWQTRIPMVKSTNDFSTIIDLQPGQYEYKFQVDGSWVVDDNQGKAQDVHGNENNMINIQDSDFAVFEALDEDFQSSTAGEVLRGESESTKNHDTPNDRELEKLRSFTQEIPSMDMLRKAAGPPVIPPQLMQVLLNKETPESCDPNVLPEPNHVMLNHMYALSIKDSVMVLSSTQRYRKKFVTTLLYKPV	not soluble
MAHHHHHHMEHVNANEKNGYLASEKNELTKNKVEEHTYDYDYVVIGGGPGGMASAKEAAAHGARVLLFDYVKPSSQGTKWGIGGTCVNVGCVPKKLMHYAGHMGSIFKLDSKAYGWKFDNLKHDWKKLVTTVQSHIRSLNFSYMTGLRSSKVKYINGLAKLKDKNTVSYYLKGDLSKEETVTGKYILIATGCRPHIPDDVEGAKELSITSDDIFSLKKDPGKTLVVGASYVALECSGFLNSLGYDVTVAVRSIVLRGFDQQCAVKVKLYMEEQGVMFKNGILPKKLTKMDDKILVEFSDKTSELYDTVLYAIGRKGDIDGLNLESLNMNVNKSNNKIIADHLSCTNIPSIFAVGDVAENVPELAPVAIKAGEILARRLFKDSDEIMDYSYIPTSIYTPIEYGACGYSEEKAYELYGKSNVEVFLQEFNNLEISAVHRQKHIRAQKDEYDLDVSSTCLAKLVCLKNEDNRVIGFHYVGPNAGEVTQGMALALRLKVKKKDFDNCIGIHPTDAESFMNLFVTISSGLSYAAKG	not soluble
MPLQVDDVAERAFVRIVGALRSVRVTSERSQNSLSTFLPVRGRAISEWETGAIQPKLSHLIQWSWELDRRLVIVGRDGELRNDSLRQRPGESWEVFERRRLATPLRNRRQAMGMAQGELADLVGVTRDSIQRWELVRVPPRPIALIVWAQKLG	not soluble
MTAEPMSESKLNTLVQKLHDFLAHSSEESEETSSPPRLAMNQNTDKISGSGSNSDMMENSKEEGTSSSEKSKSSGSSRSKRKPSIVTKYVESDDEKPLDDETVNEDASNENSENDITMQSLPKEDGLHGIVSCTACGQQVNHFQKDSIYRHPSLQVLICKNCFKYYMSDDISRDSDGMDEQCRWCAEGGNLICCDFCHNAFCKKCILRNLGRKELSTIMDENNQWYCYICHPEPLLDLVTACNSVFENLEQLLQQNKKKIKVDSEKSNKVYEHTSRFSPKKTSSNCNGEEKKLDDSCSGSVTYSYSALIVPKEMIKKAKKLIETTANMNSSYVKFLKQATDNSEISSATKLRQLKAFKSVLADIKKAHLALEEDLNSEFRAMDAVNKEKNTKEHKVIDAKFETKARKGEKPCALEKKDISKSEAKLSRKQVDSEHMHQNVPTEEQRTNKSTGGEHKKSDRKEEPQYEPANTSEDLDMDIVSVPSSVPEDIFENLETAMEVQSSVDHQGDGSSGTEQEVESSSVKLNISSKDNRGGIKSKTTAKVTKELYVKLTPVSLSNSPIKGADCQEVPQDKDGYKSCGLNPKLEKCGLGQENSDNEHLVENEVSLLLEESDLRRSPRVKTTPLRRPTETNPVTSNSDEECNETVKEKQKLSVPVRKKDKRNSSDSAIDNPKPNKLPKSKQSETVDQNSDSDEMLAILKEVSRMSHSSSSDTDINEIHTNHKTLYDLKTQAGKDDKGKRKRKSSTSGSDFDTKKGKSAKSSIISKKKRQTQSESSNYDSELEKEIKSMSKIGAARTTKKRIPNTKDFDSSEDEKHSKKGMDNQGHKNLKTSQEGSSDDAERKQERETFSSAEGTVDKDTTIMELRDRLPKKQQASASTDGVDKLSGKEESFTSLEVRKVAETKEKSKHLKTKTCKKVQDGLSDIAEKFLKKDQSDETSEDDKKQSKKGTEEKKKPSDFKKKVIKMEQQYESSSDGTEKLPEREEICHFPKGIKQIKNGTTDGEKKKKK	soluble
MALPQRQIVRAENVKIGISWQCALCDLDIYARPLPGAEVIYFGRMVTTHGRYWKDYRNSPQPTNGYETISFDVPLDLRPVVIAINFYEGEAPQGVSGEIRIAVDENTYAAPFHISATRGNRGQGVAKIIETGKASGNHSVIVDPLHIIRAR	not soluble
MAHHHHHHMKTDDHLSQIHRMCRALGIRPGAPAPLIQPALTLQCPRLHTPMVVHEKPAAKIALPMLLSDSSGDVSYLAGQDSVGTLRMTPPGSPRTPALTSVSNMRHHAHLATSELPVSVLVASALSFVAAWRTEDSACTAQKDLIHCCLKARCDLELEEAGGRHRLNQLLLTVSEQMHRFVVMGEYSKFVVFCVDQEPVWRQAARQLQKENEARLHTTENIYSRFLMEEIAVSDKMRMFQEASDFVVSQGHAAREQRRRAQILAARRRCDRQSAPQETPMPFAPQSHLHPHQHKNESNAAALAGGWTPPQRQRPRDDSTDRRSGSSKERSSKNAKSHSTTEVDRYRQRWRKIIWFLSNGERGKPAPH	not soluble
MLSRTLRPISKVLRSSAKYSQAAGLPLNEGSPAPLPSEDRAISAKVSSLVEEIANLSLLDVSDLNWALKKRLNIPDQPLMAAAAAAPAAQAEAEAASDVPQKMTFTVKLTKFDDTKKIAIIKEIRNAIPGLNLVQAKKFVETAPVNVKEDLGKAEADELKAILEKAGATIEIV	not soluble
MSQAFAQPLSGYQIGDEIKNFSMLNVTNQTVLSLTDYNDQKVVVIIFTNNNCAYAKLYEQRIANLAKQYNTSGVAFLLVNPSVSNSDKFETIEAMRKKIQNDKSLYPYLADTTQSLAISFGVQRLPDAFVLKKMETSFRLVYKGSIDDNPQSAEDVSNRFLSDAISAMVLNRSIKVADTRAVGCLLKPY	not soluble
MEVEYDEGFDSSSLKNNPASLQRDYPTFMESNCSQMSVRQEFLPIFPQRLDLCQISPKKSEKKSKKKKIPSPIKKTNDTKLSILSEKSEIRSEKHKNKCKSADLDAMEKNFKELLENFSKNAALSNSLRDEASSIISSSASSQKSLFKEINLAKKLSASYSKKPEKTGEKSKNCTFSDSTFRLSSQNDSDSDDTRPPSSQASLAFEVEQARNMMMSSAKIPKPLSSSTPRKERRTTGTNSDSNKILANLKIFKPKCGNFDLFTRKVPENIRLSESQLVELYSNREPRNSKSDITIRQFFDEEDDADKTIVEQVFKDYHRSLEKETPIMRNSATDTSGSLHIERNRDGRSASMSNLISNSGNRTNLTVFDGFAPGALRHSISTVQMSPTKKKFDEFRIEHQEPGILPRFVIKTSLRPIFSPPLDIDEICGKGLRKDAESNLRHFGGKTISAQIHGSKPVQRRPTVPKASKTGSDRPTTASTAKIVEKPEIPVEIPQKLEISRKIAEKTLKLDDFPVKSSNFSNISNFQPRRPPYCSATSSDGSAHSLATVTQQLMGTVKLLHPDWLDMLRRLLNNALPRDDVTLLFKYQVLAEKDHLERKFRGNLSVEAEAADAHLEHFGRISTLNRVLDRLADLTNDGGHVSRIQQIKIIHNALFKD	not soluble
MSLKLITNYQFLTYDGNYFHAEVIQSVLAECERAGIEIDTVLLDRDHQNDMEKFWDQIRSGAAEGVILVGVDMPPMLEVVRALGVPVVMVNGNDPNCQFDSVMPAFRDGSRIATRYLIEQGHRDIVHVTHLYRPLIRRRLDGFREALEEAGLPFSFERNVIDISSGHFSAEQAASVVAERIANGTLNATALFCVSDYTAFGVVQGILRSGKTVPGDYSVASFDDLPLAQLCRPALTSVGVDRRALGRIAVERLLSRLESVEGPTLRIEVGARLTIRDSTRPEGHHHHHH	soluble
MMDKNQLEQEFHKAMLNIYQEALNLPQPYKATRFLQIVNEFGGKEAADKLLSTGEKKTQTGFTELILSGGGVHALKYSMEYLVLQKPWCDLFTEEQLAVARKRLERVGFVFPK	not soluble
MADNYVIWFENLRMTDVERVGGKNASLGEMISQLTEKGVRVPGGFATTAEAYRAFLAHNGLSERISAALAKLDVEDVAELARVGKEIRQWILDTPFPEQLDAEIEAAWNKMVADAGGADISVAVRSSATAEDLPDASFAGQQETFLNINGLDNVKEAMHHVFASLYNDRAISYRVHKGFEHDIVALSAGVQRMVRSDSGASGVMFTLDTESGYDQVVFVTSSYGLGENVVQGAVNPDEFYVFKPTLKAGKPAILRKTMGSKHIKMIFTDKAEAGKSVTNVDVPEEDRNRFSITDEEITELAHYALTIEKHYGRPMDIEWGRDGLDGKLYILQARPETVKSQEEGNRNLRRFAINGDKTVLCEGRAIGQKVGQGKVRLIKDASEMDSVEAGDVLVTDMTDPDWEPV	not soluble
MAPLGTTVLLWSLLRSSPGVERVCFRARIQPWHGGLLQPLPCSFEMGLPRRRFSSEAESGSPETKKPTFMDEEVQSILTKMTGLNLQKTFKPAIQELKPPTYKLMTQAQLEEATRQAVEAAKVRLKMPPVLEERVPINDVLAEDKILEGTETTKYVFTDISYSIPHRCLEHHHHHHH	not soluble
MGSSHHHHHHSSGLVPRGSHMDFYKLDEKLKELKRKRVDVSIKSRKLADREIQEVSANRKPRVYSMEDVNDADESVGDTESPEKEKAFHYTVQEYDAWERRHPQGKTGQSQRGGISYDQLAKLSYEKTLRNLATQTQNSSKQDSSADEEDNKNVPKKGRIGKVQKDTKTGKITIADDDKLVNKLAVSLQSESKKRYEARKRQMQNAKTLYGVESFINDKNKQFNEKLSRESKGSE	soluble
MTGTVYKLFGNRLLNARNQLDKNLLEMAMQMVYGKDMVTKSGDILIDIQLNKDGSLQSKHYTLDVGEVINSYNIDPLCECFKY	not soluble
GPGSMQKSKRHGMHMDFNPLEHCNAPMDSVVGYSSDVPSMSNCHRHWLSETYAYTTIGYPHEVMKKMPYGSEWKRAPTGLCWTADEFVARYLLHTRGIFVYFGGSRHDLYWENLKFFGSSGMHRLYERINFENKVEVTTTKRRKRHTPLVGDVVVWDSDYKAYFPRGHVAVVVKVEDDVSAAGGEAALRELKKERRQPSLVYIAEQNFDNKNWEGRNFSRVLKFTWMRGDRASLEDPDGPPLMGHVRVGKLLEDASFFGDL	not soluble
MSLTKSVAIIGAGITGLSSAYFLKQQDPNIDVTIFEASNRPGGKIQSYRKDGYMIELGPESYLGRKTIMTELAKDIGLEQDIVTNTTGQSYIFAKNKLYPIPGGSIMGIPTDIKPFVTTKLISPLGKLRAGLDLIKKPIQMQDGDISVGAFFRARLGNEVLENLIEPLMGGIYGTDIDKLSLMSTFPNFKEKEEAFGSLIKGMKDEKNKRLKQRQLYPGAPKGQFKQFKHGLSSFIEALEQDVKNKGVTIRYNTSVDDIITSQKQYKIVYSNQQEDVFDGVLVTTPHQVFLNWFGQDPAFDYFKTMDSTTVATVVLAFDEKDIENTYDGTGFVIARTSDTDITACTWTSKKWPFTTPEGKVLIRAYVGKPGDTVVDDHTDNELVSIVRRDLSQMMTFKGDPEFTIVNRLPKSMPQYHVGHIQQIRQIQAHIKQTYPRLRVTGASFEAVGLPDCITQGKVAAEEVIAELEGHHHHHH	soluble
